T1: BMPRIb receptor/Fc fusion (R&D Systems) (UniProt O00238 14-126)
T1 construct: also called ALK-6; not shown: Fc portion of the fusion
T1 sequence (looked up): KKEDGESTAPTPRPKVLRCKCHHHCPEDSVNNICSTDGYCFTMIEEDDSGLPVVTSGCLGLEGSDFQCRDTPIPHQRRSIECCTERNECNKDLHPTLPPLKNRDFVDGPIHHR

T2: BMPRII receptor/Fc fusion (R&D Systems) (UniProt Q13873 27-151, limits assumed)
T2 construct: not shown: Fc portion of the fusion
T2 sequence (looked up): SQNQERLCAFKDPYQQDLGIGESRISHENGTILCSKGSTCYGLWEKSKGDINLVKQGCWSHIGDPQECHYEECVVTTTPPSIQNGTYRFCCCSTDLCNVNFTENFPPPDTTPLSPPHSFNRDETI


How the values were obtained:
[1] = target: T3, BMPRIa receptor/Fc fusion (R&D Systems) (UniProt P36894 24-152); experiment: plate direct binding assay (ELISA-like): BMP-7 captured by anti-BMP-7 antibody, receptor-Fc titrated (x axis Receptor, ug/mL), anti-human IgG-HRP, absorbance 450 nm
T3 construct: also called ALK-3; not shown: Fc portion of the fusion
T3 sequence (P36894 24-152 limits assumed): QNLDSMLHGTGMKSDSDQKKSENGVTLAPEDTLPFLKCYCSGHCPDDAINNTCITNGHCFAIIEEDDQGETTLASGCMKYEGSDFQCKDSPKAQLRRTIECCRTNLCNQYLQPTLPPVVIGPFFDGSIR

[2] = target: T1, BMPRIb receptor/Fc fusion (R&D Systems); experiment: as above
[3] = target: T4, ActRIIa receptor/Fc fusion (R&D Systems) (UniProt P27037 20-134, limits assumed); experiment: as above
T4 construct: not shown: Fc portion of the fusion
T4 sequence (P27037 20-134 limits assumed): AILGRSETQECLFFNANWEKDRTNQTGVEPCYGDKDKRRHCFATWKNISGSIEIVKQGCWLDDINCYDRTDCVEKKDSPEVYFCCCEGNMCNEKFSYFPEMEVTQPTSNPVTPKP

[4] = target: T2, BMPRII receptor/Fc fusion (R&D Systems); experiment: as above
[5] = target: T3, BMPRIa receptor/Fc fusion (R&D Systems); experiment: fluorescence anisotropy, labeled BMP-7 added to serial dilutions of receptor/Fc fusion (x axis [receptor] uM)
Experimental: (§1) The binding of selected variants to BMP receptors, antibodies, and inhibitors was characterized using a fluorescence binding assay and the AlphaScreen™ assay. […] Small-scale (25 uL) reactions were performed using 15 uM BMP-7 and dye concentrations ranging from 0.3 uM to 1000 uM. […] The reaction was quenched with Tris pH 8.0 and cleaned up using a PD-10 desalt column; the second fraction was used in the experiments described below. BMP-7 was also labeled with C6-FXS, a FITC-derived fluorophore with a 6-carbon spacer between the fluor and the NHS group. Labeling conditions with various ratios of protein to dye were tested, in 20 mM PO4, 500 mM NaCl, pH 7 solution. After establishing labeling conditions, 500 ug Y65N/S120D was labeled. Excess dye was removed by centrifugation and a PD-10 desalt column.
(§2) The flourescently labeled BMP-7 was added to serial dilutions of receptor/Fc fusions of the BMP-7 receptors ActRIa, BMPRIa, BMPRIb, ActRIIa, ActRIIb, and BMPRII (R&D Systems). Experiments were also performed in which the fluorescently labeled BMP-7 was added to serial dilutions of noggin/Fc or gremlin (R&D Systems). The labeled BMP-7 and receptor or inhibitor was allowed to incubate, and the fluorescence polarization and intensity was measured using a TopCount plate reader.

[6] = target: T4, ActRIIa receptor/Fc fusion (R&D Systems); experiment: as above
Experimental: as §1, §2

[7] = target: T5, ActRIIb receptor/Fc fusion (R&D Systems) (UniProt Q13705 19-134, limits assumed); experiment: as above
T5 construct: not shown: Fc portion of the bought fusion
T5 sequence (Q13705 19-134 limits assumed): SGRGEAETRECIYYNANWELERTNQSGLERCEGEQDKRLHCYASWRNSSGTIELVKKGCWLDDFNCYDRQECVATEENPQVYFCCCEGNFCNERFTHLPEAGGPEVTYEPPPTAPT
Experimental: as §1, §2

EC50 (read off the curve) [1] [µg/mL] | EC50 (read off the curve) [2] [µg/mL] | EC50 (read off the curve) [3] [µg/mL] | EC50 (read off the curve) [4] [µg/mL] | EC50 (read off the curve) [5] [nM] | EC50 (read off the curve) [6] [nM] | EC50 (read off the curve) [7] [nM] | Binder
~1 | ~0.7 | ~0.2 | ~1 | – | – | – | wild type human BMP-7 (Image clone) (ligand, The pro-protein is processed to a dimeric mature BMP-7; also called WT; wild-type BMP-7) STGGKQRSQNRSKTPKNQEALRMASVAENSSSDQRQACKKHELYVSFRDLGWQDWIIAPEGYAAYYCEGECAFPLNSYMNATNHAIVQTLVHFINPETVPKPCCAPTQLNAISVLYFDDSSNVILKKYRNMVVRACGCH
– | – | – | – | ~1000 | ~3000 | ~2000 | FXS labeled BMP7 (ligand, labeled with C6-FXS (FITC-derived NHS fluorophore); labeled sites not given, the C6-FXS form of the labeled BMP-7 that the list holds jointly as 1.m9; also called BMP-7 variant Y65N/S120D labeled with C6-FXS) BMP-7 mature domain: STGGKQRSQNRSKTPKNQEALRMASVAENSSSDQRQACKKHELYVSFRDLGWQDWIIAPEGYAANYCEGECAFPLNSYMNATNHAIVQTLVHFINPETVPKPCCAPTQLNAISVLYFDDDSNVILKKYRNMVVRACGCH

Reference: patent US20060058231A1 (Xencor, published 2006)
